Measured values published in US20250042994A1 (HAINAN SIMCERE ZAIMING PHARMACEUTICAL, published 2025).

Legend:
human CD19 on Raji cells = target: T1, human CD19 on Raji cells (human, UniProt P15391 20-556); test: FACS on Raji cells
T1 construct: whole, on cells
T1 sequence (looked up): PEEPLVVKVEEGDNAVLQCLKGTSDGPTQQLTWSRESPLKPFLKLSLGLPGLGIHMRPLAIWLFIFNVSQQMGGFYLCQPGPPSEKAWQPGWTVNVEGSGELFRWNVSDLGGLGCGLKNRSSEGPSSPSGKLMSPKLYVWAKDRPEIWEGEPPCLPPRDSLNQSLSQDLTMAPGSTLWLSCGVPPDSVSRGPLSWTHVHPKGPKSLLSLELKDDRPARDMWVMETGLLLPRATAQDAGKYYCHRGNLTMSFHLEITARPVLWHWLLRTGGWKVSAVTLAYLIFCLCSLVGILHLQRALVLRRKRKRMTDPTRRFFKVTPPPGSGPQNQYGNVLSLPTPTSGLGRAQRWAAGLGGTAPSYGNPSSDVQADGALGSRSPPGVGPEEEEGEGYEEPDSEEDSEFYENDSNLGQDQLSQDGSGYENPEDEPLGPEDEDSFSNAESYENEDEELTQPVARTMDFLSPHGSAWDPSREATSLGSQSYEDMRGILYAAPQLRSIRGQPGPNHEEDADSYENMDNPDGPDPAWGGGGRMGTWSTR
Protocol: (§1) After the digestion was terminated, the cells were washed 2 times with a PBS buffer; and for suspension cell Raji, the supernatant of the medium was discarded by directly centrifugation, and the cell pellet was washed 2 times with PBS. After counting the cells in the previous step, the cell pellet was resuspended with [PBS+2% (w/w) BSA] blocking solution to 2×10⁶ cells/ml, and added to a 96-well FACS reaction plate at 50 μl/well, and then the sample to be tested was added at 50 μl/well, and incubated on ice for 2 h. The obtained mixture was centrifuged and washed 3 times with a PBS buffer. […] The obtained mixture was centrifuged and washed 5 times with a PBS buffer, and FACS (FACS Canto™, purchased from BD Company) was used for detection and result analysis. Data analysis was performed by software (FlowJo) to obtain the mean fluorescence intensity (MFI) of the cells. And then software (GraphPad Prism8) was used for analysis, data fitting, and EC50 value calculation. […] The same method was used to detect the binding of the chimeric antibodies to endogenous CD19-negative cells, MoLT4 cells (purchased from ATCC, CRL-1582), and CHO-K1 cells.

Human CD19-his protein [1] = target: T2, Human CD19-his protein (human, UniProt P15391 20-291); test: ELISA, coated human CD19-His
T2 construct: bought protein; also called recombinant human CD19-His; CD19 full-length protein; not shown: His tag
T2 sequence (looked up): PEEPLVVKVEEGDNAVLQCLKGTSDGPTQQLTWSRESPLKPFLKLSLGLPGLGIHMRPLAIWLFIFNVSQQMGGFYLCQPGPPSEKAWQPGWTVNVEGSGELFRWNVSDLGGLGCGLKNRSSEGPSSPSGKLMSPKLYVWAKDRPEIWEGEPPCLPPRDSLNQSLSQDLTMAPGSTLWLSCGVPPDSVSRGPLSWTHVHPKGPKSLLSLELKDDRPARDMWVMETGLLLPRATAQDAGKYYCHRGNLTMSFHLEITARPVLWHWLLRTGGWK
Protocol: Human CD19-his protein (purchased from ACROBiosystems, catalog number: CD9-H52H2) was diluted with PBS to a final concentration of 4 μg/mL, and then added to a 96-well ELISA plate at 100 μl/well. The plate was sealed with a plastic film and incubated overnight at 4° C., the plate was washed 2 times with PBS the next day, and then a blocking solution [PBS+2% (w/w) BSA] was added for blocking at room temperature for 2 h. The blocking solution was poured off, and 100 nM gradiently diluted CD19 chimeric antibody or control antibody was added at 50 μl/well. After incubation at 37° C. for 2 h, the plate was washed 3 times with PBS. […] TMB substrate was added at 50 μl/well, and incubated at room temperature for 10 min, and then a stop solution (1.0 N HCl) was added at 50 μl/well. The OD450 nm values were read by an ELISA microplate reader (Multimode Plate Reader, EnSight, purchased from Perkin Elmer).

[2] = target: T3, human CD19 on CHO-K1-human CD19 cells (human, UniProt P15391 20-556); test: FACS on CHO-K1-human CD19 cells
T3 construct: whole, on cells; also called CHO-K1-human CD19-2C8
T3 sequence (looked up): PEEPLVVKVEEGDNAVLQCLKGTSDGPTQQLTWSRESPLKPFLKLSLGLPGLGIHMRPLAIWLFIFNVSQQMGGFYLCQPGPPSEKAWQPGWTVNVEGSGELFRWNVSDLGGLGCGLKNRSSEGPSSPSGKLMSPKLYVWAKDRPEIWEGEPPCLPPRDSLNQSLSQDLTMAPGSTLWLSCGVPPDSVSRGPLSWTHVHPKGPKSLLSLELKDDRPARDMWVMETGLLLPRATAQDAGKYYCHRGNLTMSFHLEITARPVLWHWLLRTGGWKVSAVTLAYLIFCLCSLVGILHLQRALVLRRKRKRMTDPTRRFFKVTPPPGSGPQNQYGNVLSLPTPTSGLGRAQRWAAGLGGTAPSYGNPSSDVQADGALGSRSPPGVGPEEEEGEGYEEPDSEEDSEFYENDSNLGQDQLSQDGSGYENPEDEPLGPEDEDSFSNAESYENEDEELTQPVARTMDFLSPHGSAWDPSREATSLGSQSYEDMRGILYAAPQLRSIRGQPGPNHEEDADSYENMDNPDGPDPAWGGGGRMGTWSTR
Protocol: as §1

Human CD19-his protein [3] = target: T2, Human CD19-his protein; test: ELISA on coated human CD19-His
[4] = target: T4, human CD19 exon1-3-His tag protein (human, UniProt P15391 20-186, limits assumed); test: ELISA, coated human CD19 exon 1-3-His
T4 construct: membrane-distal part of the extracellular region, made in HEK293E cells; not shown: His tag
T4 sequence (looked up): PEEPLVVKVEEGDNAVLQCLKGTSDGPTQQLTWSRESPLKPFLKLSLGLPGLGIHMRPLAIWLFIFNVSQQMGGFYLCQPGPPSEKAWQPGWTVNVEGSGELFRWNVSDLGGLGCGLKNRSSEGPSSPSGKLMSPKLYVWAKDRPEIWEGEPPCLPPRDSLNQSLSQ

Human CD19-his protein [5] = target: T2, Human CD19-his protein; test: SPR Biacore, method of example 7.1, human CD19-His
Protocol: A sample buffer and a running buffer were HBS-EP+ (10 mM HEPES, 150 mM NaCl, 3 mM EDTA and 0.05% surfactant P20) (GE Healthcare; BR-1006-69). The flow-through cell was set to 25° C. The sample block was set to 16° C. Both were pretreated with the running buffer. In each cycle, an antibody to be detected was first captured with a Protein A chip, and then a single concentration of CD19 antigen protein was injected. The binding and dissociation processes of the antibody and the antigen protein were recorded, and finally Glycine pH 1.5 (GE Healthcare; BR-1003-54) was used to complete chip regeneration. The binding was measured by injecting different concentrations of recombinant human CD19-His proteins in a solution for 240 s with a flow rate of 30 μl/min. The concentration started from 200 nM (see the detailed results for the actual concentration in the test) and was diluted at 1:1, making a total of 5 concentrations. The dissociation phase was monitored for up to 600 s and was triggered by switching from sample solution to running buffer. The surface was regenerated by washing with a 10 mM glycine solution (pH 1.5) for 30 s at a flow rate of 30 μl/min. Bulk refractive index difference was corrected by subtracting the response obtained from the goat anti-human Fc surface. Blank injection was also subtracted (=double reference). For calculation of apparent KD and other kinetic parameters, Langmuir 1:1 model was used.
SPR (biacore) detection and data analysis were performed according to the method in example 7.1.

B1: F3.121.4-L3H3 (antibody, mouse IgG1, kappa)
heavy: EVQLVQSGAEVKKPGASVKVSCKASGYTFTNYWMHWVRQRPGQGLEWMGEIDPSDNYANYNQEFQGRVTITVDKSASTAYMELSSLRSEDTAVYYCARHDGYFGALDYWGQGTTVTVSSAKTTPPSVYPLAPGSAAQTNSMVTLGCLVKGYFPEPVTVTWNSGSLSSGVHTFPAVLQSDLYTLSSSVTVPSSTWPSETVTCNVAHPASSTKVDKKIVPRDCGCKPCICTVPEVSSVFIFPPKPKDVLTITLTPKVTCVVVDISKDDPEVQFSWFVDDVEVHTAQTQPREEQFNSTFRSVSELPIMHQDWLNGKEFKCRVNSAAFPAPIEKTISKTKGRPKAPQVYTIPPPKEQMAKDKVSLTCMITDFFPEDITVEWQWNGQPAENYKNTQPIMDTDGSYFVYSKLNVQKSNWEAGNTFTCSVLHEGLHNHHTEKSLSHSPGK
light: EIVLTQSPDFQSVTPKEKVTITCSASSSISSNYLHWYQQKPDQSPKFLIYRTSNLASGVPSRFSGSGSGTDFTLTINSLEAEDAATYYCQQASSIPRMFTFGQGTKLEIKRADAAPTVSIFPPSSEQLTSGGASVVCFLNNFYPKDINVKWKIDGSERQNGVLNSWTDQDSKDSTYSMSSTLTLTKDEYERHNSYTCEATHKTSTSPIVKSFNRNEC
notes: humanized antibody of F3.121.4, VL3+VH3, murine IgG1 constant regions
Human CD19 on Raji cells
  EC50: 0.45 nM
  Maximum mean fluorescence intensity: 32200 MFI
Human CD19-his protein [1]
  OD450 at 0.0001 nM: 0.1 OD450
  OD450 at 0.001 nM: 0.15 OD450
  OD450 at 0.01 nM: 0.43 OD450
  OD450 at 0.10 nM: 1.65 OD450
  OD450 at 1.00 nM: 2.28 OD450
  OD450 at 10 nM: 2.22 OD450
  OD450 at 100 nM: 2.19 OD450
[2]
  EC50: 1.16 nM
  Maximum mean fluorescence intensity: 51800 MFI
Human CD19-his protein [3]
  EC50 (read off the curve): ~0.05 nM
[4]
  OD450 at 0.0001 nM: 0.05 OD450
  OD450 at 0.001 nM: 0.05 OD450
  OD450 at 0.01 nM: 0.05 OD450
  OD450 at 0.10 nM: 0.05 OD450
  OD450 at 1.00 nM: 0.05 OD450
  OD450 at 10 nM: 0.05 OD450
  OD450 at 100 nM: 0.08 OD450
Human CD19-his protein [5]
  Kd: 0.0088 nM
  koff: 1.04e-06 s⁻¹
  kon: 118000 M⁻¹ s⁻¹

B2: F3.121.4-L3H4 (antibody, mouse IgG1, kappa)
heavy: EVQLQQSGAEVKKPGASVKVSCKASGYTFTNYWMHWVRQRPGQGLEWMGEIDPSDNYANYNQEFQGRVTITVDKSASTAYMELSSLRSEDTAVYYCARHDGYFGALDYWGQGTTVTVSSAKTTPPSVYPLAPGSAAQTNSMVTLGCLVKGYFPEPVTVTWNSGSLSSGVHTFPAVLQSDLYTLSSSVTVPSSTWPSETVTCNVAHPASSTKVDKKIVPRDCGCKPCICTVPEVSSVFIFPPKPKDVLTITLTPKVTCVVVDISKDDPEVQFSWFVDDVEVHTAQTQPREEQFNSTFRSVSELPIMHQDWLNGKEFKCRVNSAAFPAPIEKTISKTKGRPKAPQVYTIPPPKEQMAKDKVSLTCMITDFFPEDITVEWQWNGQPAENYKNTQPIMDTDGSYFVYSKLNVQKSNWEAGNTFTCSVLHEGLHNHHTEKSLSHSPGK
light: EIVLTQSPDFQSVTPKEKVTITCSASSSISSNYLHWYQQKPDQSPKFLIYRTSNLASGVPSRFSGSGSGTDFTLTINSLEAEDAATYYCQQASSIPRMFTFGQGTKLEIKRADAAPTVSIFPPSSEQLTSGGASVVCFLNNFYPKDINVKWKIDGSERQNGVLNSWTDQDSKDSTYSMSSTLTLTKDEYERHNSYTCEATHKTSTSPIVKSFNRNEC
notes: humanized antibody of F3.121.4, VL3+VH4, murine IgG1 constant regions
Human CD19 on Raji cells
  EC50: 0.43 nM
  Maximum mean fluorescence intensity: 32500 MFI
Human CD19-his protein [1]
  OD450 at 0.0001 nM: 0.11 OD450
  OD450 at 0.001 nM: 0.16 OD450
  OD450 at 0.01 nM: 0.51 OD450
  OD450 at 0.10 nM: 1.68 OD450
  OD450 at 1.00 nM: 2.31 OD450
  OD450 at 10 nM: 2.26 OD450
  OD450 at 100 nM: 2.31 OD450
[2]
  EC50: 1.05 nM
  Maximum mean fluorescence intensity: 50500 MFI
Human CD19-his protein [3]
  EC50 (read off the curve): ~0.05 nM
[4]
  OD450 at 0.0001 nM: 0.06 OD450
  OD450 at 0.001 nM: 0.06 OD450
  OD450 at 0.01 nM: 0.06 OD450
  OD450 at 0.10 nM: 0.06 OD450
  OD450 at 1.00 nM: 0.06 OD450
  OD450 at 10 nM: 0.07 OD450
  OD450 at 100 nM: 0.11 OD450
Human CD19-his protein [5]
  Kd: 0.225 nM
  koff: 2.51e-05 s⁻¹
  kon: 112000 M⁻¹ s⁻¹
